This passage reports binding result and Kd results from patent US20070248536A1 (SCIL PROTEINS, published 2007).

Experiment [1] deals with T1, BSA (bovine, UniProt P02769 25-607).
T1 construct: Control antigen
The experiment is described as follows: concentration-dependent ELISA, detection with anti-gamma-II-crystallin antibody-POD. The procedure: The binding properties of the purified proteins were now tested as described above in a concentration-dependent ELISA. For this purpose, different concentrations (100 nM-10 μM) of the Affilin™ variations were employed and an anti-gamma-II-crystallin antibody (monoclonal antibody conjugate with POD) was employed as the detection antibody.

Experiment [2] concerns the target T2, human IgG Fc (human).
T2 construct: domain: Fc; The ELISAs used human monoclonal IgG Fc (Roche); Kept as one molecule; also called human monoclonal IgG Fc portion (Roche); polyclonal IgG Fc
Briefly: SPR (BIACORE), IgG Fc immobilised on a CM5 chip, Affilin as analyte. The procedure:
In BIACORE experiments the dissociation constants of the three Affilin™ variations were determined. For this purpose, approx. 180 RU of human IgG Fc (50 μg/ml in 50 mM Na citrate, pH 5.0) was immobilized on a CM5 chip. Free binding sites were finally inactivated by 1 M ethanolamin (pH 8.5).
Then, at a flow of 30 μl/min, 6 different concentrations (166 nM-1 μM) were passed over the chip for 180 sec. Afterwards, at the same flow the chip was rinsed with HBS, 0.005% Surfactant P20 (Biacore) for 180 sec. From the resulting sensorgrams using the BiaEvaluation Software (Biacore, Uppsala, Sweden) the following dissociation constants of the Affilin™ variations to IgG Fc could be determined: SPC1-A1 with 230 nM, SPC1-A7 with 280 nM and SPC1-G3 with 800 nM. In competition experiments the specific binding of the Affilin™ variations to IgG Fc and not to the chip matrix could be detected (FIG. 2).

Experiment [3] addresses proNGF. The experiment is described as follows: concentration-dependent ELISA, proNGF coated, apparent KD. The procedure: FIG. 3: Concentration-dependent ELISA for the detection of the binding of SPC7-E9 to proNGF. The microtiter plate was coated with 10 μg/mi of proNGF. As the detection antibody served an anti-human gamma-II-crystallin antibody-POD conjugate in a dilution of 1:1000. The absorption values presented are mean values of two parallel measurements.

Experiment [4] deals with proNGF. The experiment is described as follows: SPR (BIACORE), SPC7-E9 coupled through amino groups to a CM5 chip, proNGF as analyte. The protocol: FIG. 9: Sensorgrams of the Biacore experiments for the binding of SPC7-E9 to a CM5 chip with proNGF. 280 RU of […] were immobilized and different concentrations of proNGF passed over the chip. As the running buffer served HBS-EP with a flow rate of 30 μl/min.
proNGF, sequence (P01138 19-241): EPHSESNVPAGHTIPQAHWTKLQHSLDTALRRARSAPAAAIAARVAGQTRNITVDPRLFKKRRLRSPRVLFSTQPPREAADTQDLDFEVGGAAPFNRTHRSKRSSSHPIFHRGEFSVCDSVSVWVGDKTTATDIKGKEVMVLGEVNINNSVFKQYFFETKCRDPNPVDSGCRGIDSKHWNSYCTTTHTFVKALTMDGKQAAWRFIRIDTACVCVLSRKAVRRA
2.) Furthermore, SPC7-E9 could be coupled unspecifically via surface-exposed amino groups (lysines) by means of NHS/EDC to the carboxyl groups of the BIACORE dextrane matrix in the following manner: The CM5 chip was activated for 7 min with NHS/EDC, and afterwards purified SPC7-E9 (in 20 mM Na phosphate buffer, pH 6.0) was passed over the chip for further 7 min. After the coupling was carried out the remaining reactive groups were deactivated for 7 min with 1 M ethanolamine (pH 8.5). For the analysis of dissociation constants the target proNGF was passed over the chip in different concentrations, the binding was monitored online (FIG. 9), and the curves were subsequently evaluated with the BiaEvaluation Software. […] After kinetic measurements the chip was regenerated with 0.1 glycin (pH 2.2), 10 mM HCl, 10 mM NaOh, 6 M Gua/HCl, 6 M urea and 20% ethanol. In this way, the binding activity of the Affilin™ chip was unchanged even after several regeneration cycles

T1 sequence (P02769 25-607 limits assumed): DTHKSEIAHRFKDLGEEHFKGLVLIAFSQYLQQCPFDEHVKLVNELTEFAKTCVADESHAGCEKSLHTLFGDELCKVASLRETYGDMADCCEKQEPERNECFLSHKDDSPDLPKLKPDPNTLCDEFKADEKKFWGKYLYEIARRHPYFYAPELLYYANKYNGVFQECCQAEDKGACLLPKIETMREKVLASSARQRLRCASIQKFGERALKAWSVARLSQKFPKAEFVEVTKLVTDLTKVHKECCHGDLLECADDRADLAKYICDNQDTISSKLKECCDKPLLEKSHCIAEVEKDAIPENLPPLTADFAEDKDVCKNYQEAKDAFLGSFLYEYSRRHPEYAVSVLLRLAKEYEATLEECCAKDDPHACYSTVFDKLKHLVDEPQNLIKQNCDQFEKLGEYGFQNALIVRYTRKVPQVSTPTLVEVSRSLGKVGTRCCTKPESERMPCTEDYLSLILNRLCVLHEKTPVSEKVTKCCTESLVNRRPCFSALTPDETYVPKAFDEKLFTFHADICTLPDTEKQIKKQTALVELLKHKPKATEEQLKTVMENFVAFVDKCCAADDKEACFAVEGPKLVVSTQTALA

B1: human wildtype gamma-II-crystallin (other, UniProt P07316 1-175, looked up)
chain: MGKITFYEDRAFQGRSYECTTDCPNLQPYFSRCNSIRVESGCWMIYERPNYQGHQYFLRRGEYPDYQQWMGLSDSIRSCCLIPPHSGAYRMKIYDRDELRGQMSELTDDCISVQDRFHLTEIHSLNVLEGSWILYEMPNYRGRQYLLRPGEYRRFLDWGAPNAKVGSLRRVMDLY
notes: also called human wildtype gamma-crystallin
With B1, the binding result in experiment [1] is given as “no binding”.

B2: Affilin variation SPC1-A1 (designed binder)
chain: MGFIWFMEDRAFQGRRYDCGTDCPNLQPYFSRCNSIKVKSGCWMIYERPNYQGHRHQYFLRRGEYPDYQQWMGLSDSIRSCCLIPPHSGAYRMKIYDRDELRGQMSELTDDCLSVQDRFHLTEIHSLNVLEGSWILYEMPNYRGRQYLLRPGEYRRFLDWGAPNAKVGSLRRVMDLYA
notes: Selected from the human gamma-II-crystallin library CR20
In the case of B2, the binding result in experiment [1] is listed as “no binding (tested: 100 nM-10 µM)”. This molecule had a Kd in experiment [2] of 230 nM.

B3: Affilin variation SPC1-G3 (designed binder)
chain: MGSIIFLEDRAFQGRIYGCTTDCPNLQPYFSRCNSIVVQSGCWMIYERPNYQGHRHQYFLRRGEYPDYQQWMGLSDSIRSCCLIPPHSGAYRMKIYDRDELRGQMSELTDDCLSVQDRFHLTEIHSLNVLEGSWILYEMPNYRGRQYLLRPGEYRRFLDWGAPNAKVGSLRRVMDLYA
notes: Selected from library CR20
With B3, in experiment [1], the binding result is reported as “no binding (tested: 100 nM-10 µM)”. This molecule registered a Kd in experiment [2] of 800 nM.

B4: Affilin variation SPC1-A7 (designed binder)
chain: MGLICFSEDRAFQGRRYMCLTDCPNLQPYFSRCNSINVWSGCWMIYERPNYQGHRHQYFLRRGEYPDYQQWMGLSDSIRSCCLIPPHSGAYRMKIYDRDELRGQMSELTDDCLSVQDRFHLTEIHSLNVLEGSWILYEMPNYRGRQYLLRPGEYRRFLDWGAPNAKVGSLRRVMDLYA
notes: Selected from library CR20; has a free cysteine in variable position 4; not shown: C-terminal tag of six histidines 'already present'
On to B4, for which, in experiment [1], the binding result is “no binding (tested: 100 nM-10 µM)”. The same molecule registered a Kd in experiment [2] of 280 nM.

B5: Affilin variation SPC7-E9 (designed binder)
chain: MGFICFLEDRAFQGRSYACDTDCPNLQPYFSRCNSISVLSGCWMIYERPNYQGHQYFLRRGEYPDYQQWMGLSDSIRSCCLIPPHSGAYRMKIYDRDELRGQMSELTDDCLSVQDRFHLTEIHSLNVLEGSWILYEMPNYRGRQYLLRPGEYRRFLDWGAPNAKVGSLRRVMDLYLEHHHHHH
notes: Directed against proNGF; also called SPCJ-E9 (including His6)
On to B5, for which the Kd was determined as 200 nM in experiment [3] and 1.4 nM in experiment [4].
